Reference: patent publication US11840574B2, “Anti-DR5 antibody and use thereof” (DONG-A ST CO., LTD., priority 2017, dated 2023)
Substitutions are numbered along the chain they refer to.

B1: DA29: humanized or deimmunized variant of parental clone D0; CDRs SEQ ID NO 1, 2, 7 / 4, 10, 13 (antibody, V domains shown)
VH: AVTLDESGGGLQTPGGGLSLVCKGSGFTFSSFNMLWVRQAPGKGLEWVAGIGKSDRYTGYGSAVKGRATISRDDGQSTARLQLNNLRAEDTGTYYCVKDAGSGCGSGGWTGACIDTWGHGTEVIVSS
VL: LTQPSSVSANLGGTVEITCSGGDSYAGSYYYGWYQQKAPGSAPVTVIYNNNNRPSNIPSRFSGSTSGSTATLTITGVQAEDEATYFCGSRDSSYVGIFGAGTTLTVL
B2: DA22: humanized or deimmunized variant of parental clone D0; CDRs SEQ ID NO 1, 2, 8 / 4, 10, 13 (antibody, V domains shown)
VH: EVQLVESGGGLVQPGGSLRLSCAASGFTFSSFNMLWVRQAPGKGLEWVAGIGKSDRYTGYGSAVKGRFTISRDDSKSTVYLQMNSLRAEDTAVYYCVRDAGSPCGSGGWTGACIDTWGQGTLVTVSS
VL: DIQMTQSPSSLSASVGDRVTITCSGGDSYAGSYYYGWYQQKPGKAPKTLIYNNNNRPSGVPSRFSGSTSGTDFTLTISSLQPEDFATYYCGSRDSSYVGIFGQGTKVEIK
B3: DA23: humanized or deimmunized variant of parental clone D0; CDRs SEQ ID NO 1, 2, 9 / 4, 10, 13 (antibody, V domains shown)
VH: B2 VH with S106K
VL: B2 VL

How the values were obtained:
Human DR5 [1] = biological target: T1, Human DR5 (Homo sapiens, UniProt O14763); test: Binding affinity of antibody to human DR5 (BIAcore, CM5 chip); conditions: for Ka(1/Ms): association rate, Human DR5, 1:1 Langmuir binding model; for Kd: equilibrium dissociation constant, Human DR5
How it was run: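 Surface plasmon resonance was run with human DR5 coupled to a CM5 chip. IgG was injected as analyte at 2-fold dilutions from 5 nM to 0.156 nM. Association and dissociation rates were fitted to a 1:1 Langmuir model, and KD was taken as the ratio of the two rate constants.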

caspase-3/7 [2] = test: Intracellular caspase activity (Apo-ONE Caspase-3/7), Colo205; type: cell-based, human; conditions: Colo205, Ab alone or Ab linked, 4 hours
Method: (§1) In order to investigate the cell death mechanism thereof, the constructed antibodies were assayed for caspase activity. The activity of caspase-3/7 was measured using Apo-ONE® Homogeneous Caspase-3/7 Assay kit (Promega, U.S.A.). In this assay, the human colorectal cancer cell line Colo205 (ATCC, U.S.A.), the human pancreatic cancer cell line Miapaca-2 (ATCC, U.S.A.), and the lung cancer cell line H2122 (ATCC, U.S.A.) were employed. A suspension of each tumor cell line having a concentration of 1×10^5 cells/ml was plated at a volume of 50 μl per well into 96-well cell culture plates and cultured for 16-24 hours in a constant temperature and humidity chamber. The cells were treated with predetermined concentrations (0.01-10000 ng/ml) of the antibody alone (Ab alone) or in combination with a crosslinking antibody (anti-human Fc) (Serotec, U.S.A.) (Ab linked) and then cultured for 4 hours. […] When the reaction reached a predetermined level, fluorescence was read at 520 nm using a spectrophotometer (Molecular Device). Caspase activity was calculated as a fold increase of relative fluorescence units (RFU) of a test substance-treated group (treated RFU) to over the relative fluorescence units of a culture medium-treated group (untreated RFU) (Caspase activity=treated RFU/Untreated RFU). […]

caspase-3/7 [3] = test: Intracellular caspase activity (Apo-ONE Caspase-3/7), H2122; type: cell-based, human; conditions: H2122, Ab alone or Ab linked, 4 hours
Method: as §1

caspase-3/7 [4] = test: Intracellular caspase activity (Apo-ONE Caspase-3/7), Miapaca-2; type: cell-based, human; conditions: Miapaca-2, Ab alone or Ab linked, 4 hours
Method: as §1

[5] = system: human pancreatic cancer cell line Miapaca-2; test: Tumor cell death assay, co-treatment with gemcitabine, Miapaca-2; type: cell-based; conditions: Miapaca-2, gemcitabine 3 nM-300 nM, 48 to 72 hours
Method: (§2) Effects obtained from co-treatment with the above constructed antibody and gemcitabine were evaluated using in vitro tumor cell death assay.
(§3) The human pancreatic cancer cell lines Miapaca-2 (ATCC, U.S.A.) and Panc-1 (ATCC, U.S.A.) were each suspended at a density of 1×10^5 cells/ml. The suspensions were added in an amount of 50 μl to each well of 96-well cell culture plates and incubated for 16-24 hours in a constant temperature and humidity chamber. The cancer cell lines were treated with the anti-DR5 antibodies of the present disclosure including D0 in combination with certain concentrations (3 nM-300 nM) of gemcitabine and cultured for 48 to 72 hours. The cells were further incubated for 1 to 3 hours after addition of 10 μl of a resazurin solution (Invitrogen, U.S.A.) per well. When the reaction proceeded to a predetermined level, fluorescence was read at 590 nm using a spectrophotometer (Molecular Device). Cell viability was calculated as the percentage of relative fluorescence units (RFU) of a test substance-treated group (treated RFU) to relative fluorescence units of a culture medium-treated group (untreated RFU) (Cell viability (%)=treated RFU/Untreated RFU×100). The results are depicted in FIGS. 6a to 6r. Representative results are depicted in FIGS. 11a (Miapaca-2) and 11b (Panc-1). For comparison, the control antibody AP was treated in the same manner

[6] = system: human pancreatic cancer cell line Panc-1; test: Tumor cell death assay, co-treatment with gemcitabine, Panc-1; type: cell-based; conditions: Panc-1, gemcitabine 3 nM-300 nM, 48 to 72 hours
Method: as §2, §3

[7] = Pharmacokinetics of antibody in nude mice (plasma ELISA); type: in vivo; conditions: intravenous, 10 mg/kg
Method: In order to examine in vivo kinetics of the antibodies constructed above, blood half-life was evaluated in mice. Antibodies were intravenously injected at doses of 1-10 mg/kg into nude mice. Blood was sampled from the orbital vein from 5 min to 14 days after injection. The blood collection was conducted using heparinized capillary tubes. Plasma obtained by centrifugation of the blood samples was diluted at certain ratios and used as samples for ELISA evaluation. Human DR5 diluted to a concentration of 10 ng/ml was plated at 100 μl per well onto 96-well immune plates (Nunc, U.S.A.) and adsorbed to the wells for 12-14 hours. The plates were washed three times with buffer solution containing 0.1% Tween 20 and blocked with buffer solution containing bovine serum albumin (Sigma, U.S.A.) at room temperature for 1 hour. After three rounds of washing with buffer solution, the plates were incubated with each of the mouse plasma dilutions and a serial dilution of standard substance at room temperature for 2 to 3 hours. After three washes with buffer solution, a 1:20000 dilution of an HRP-conjugated anti-human immunoglobulin Fc (Fc-HRP) antibody (Bethyl, U.S.A.) was added at a volume of 100 μl per well and incubated at room temperature for 1 hour. After washing three times, 100 μl of a TMB solution (Sigma, U.S.A.) was added to each well and allowed to react. When the color development reached a certain level, the reaction was terminated with 0.2 N sulfuric acid solution. Absorbance at 450 nm was measured using a spectrophotometer (Molecular Device, U.S.A.). The antibody concentration in each plasma sample was calculated from the optical density (OD) measurements, and pharmacokinetic parameters were estimated using WinNonLin ver. 6.2.0.495.

Human DR5 [8] = biological target: T1, Human DR5; test: TRAIL competitive enzyme-linked immunosorbent assay; type: binding; conditions: 0.01-400 nM of TRAIL protein, absorbance at 405 nm
Method: In order to examine antigen-binding characteristics of the antibodies selected in Example 3, a TRAIL competitive enzyme-linked immunosorbent assay was conducted. ELISA plates were coated with 0.1 μg/ml human DR5 (R&D systems, U.S.A.) at 4° C. Thereafter, the plates were incubated with 0.01 nM-1440 nM of antibodies (D0, DA20, DA21, DA21, DA22, and DA23) together with 0.01-400 nM of TRAIL protein for 2 hours. After the plates were washed three times with PBST (0.1% bovine serum albumin and Tween-20 in PBS), HRP (horse radish peroxidase)-conjugated anti-human immunoglobulin Fc was added to each well and incubated for 1 hour. After three washes with PBST, color development was performed for 20 min with ABTS (Thermo, U.S.A.). When the color development reached to a certain level, the reaction was terminated with 1 N sulfuric acid. Absorbance at 405 nm was measured using a spectrophotometer (Molecular Device, U.S.A.) and is depicted in FIGS. 8a and 8b. The antibody AP disclosed in Example (7-1) was used as a control.

[9] = system: human colorectal cancer cell line Colo205; test: Cell death activity upon co-treatment with TRAIL, Colo205; type: cell-based; conditions: Colo205, antibody as low as 10 ng/ml, TRAIL 0.5, 1, 10 ng/ml
Method: (§4) Antibody properties according to epitopes were analyzed in terms of cell death activity upon co-treatment with the constructed antibodies and TRAIL. In this test, the human colorectal cancer cell line Colo205 (ATCC, U.S.A.) and the human pancreatic cell line Miapaca-2 (ATCC, U.S.A.) were employed. The tumor cells were suspended at a concentration of 1×10^5 cells/ml and the suspensions were plated at 50 μl per well into 96-well culture plates, followed by incubation for 16-24 hours in a constant temperature and humidity chamber. Serial dilutions of the antibodies (0.1-10000 ng/ml) and TRAIL protein at determined concentrations (0.5, 1, 10 ng/ml) were applied in combination to the 96-well plates. After incubation for 48 to 72 hours at a constant temperature in a humidified condition, a resazurin solution (Invitrogen, U.S.A.) was added at an amount of 10 μl to per well. When the reaction reached a certain level after 1 to 2 hours, fluorescence was read at 590 nm using a spectrophotometer (Molecular Device). Cell viability was calculated as the percentage of relative fluorescence units (RFU) of a test substance-treated group (treated RFU) to the relative fluorescence units of a culture medium-treated group (untreated RFU) (Cell viability (%)=treated RFU/Untreated RFU×100).
(§5) Representative results are depicted in FIGS. 9a (Colo205) and 9b (Miapaca-2). […]

[10] = system: human pancreatic cell line Miapaca-2; test: Cell death activity upon co-treatment with TRAIL, Miapaca-2; type: cell-based; conditions: Miapaca-2, antibody as low as 10 ng/ml, TRAIL 0.5, 1, 10 ng/ml
Method: as §4, §5

Molecule | Ka(1/Ms) (Human DR5 [1]) | Kd (Human DR5 [1]) [nM] | activity of caspase-3/7 (caspase-3/7 [2]) | activity of caspase-3/7 (caspase-3/7 [3]) | activity of caspase-3/7 (caspase-3/7 [4]) | apoptotic activity upon co-treatment with gemcitabine relative to each individual substance [5] | apoptotic activity upon co-treatment with gemcitabine relative to each individual substance [6] | Cmax [7] [µg/mL] | t½ Terminal (2 d~14 d) [7] [h] | t½ initial (−1 d) [7] [h] | antigen binding in the presence of TRAIL (Human DR5 [8]) | cell death activity in combination with TRAIL, compared to antibody alone [9] | cell death activity in combination with TRAIL, compared to antibody alone [10]
B1 | 1.21 × 10^06 1/Ms | 0.0698 | increase in the activity of casapse-3/7 | increase in the activity of casapse-3/7 | increase in the activity of casapse-3/7 | increased apoptotic activity | increased apoptotic activity | – | – | – | – | – | –
B2 | 9.32 × 10^05 1/Ms | 0.0342 | – | – | – | – | – | 227.9 | 201 | 16.8 | maintained a certain level of antigen binding irrespective of TRAIL concentrations | – | –
B3 | 6.96 × 10^05 1/Ms | 0.0403 | – | – | – | – | – | 195.8 | 191 | 13.9 | maintained a certain level of antigen binding irrespective of TRAIL concentrations | higher cell death activity | higher cell death activity
